Tests used:
Test in all cases: holdup assay
Parameters in all cases: key: below the threshold = too weak to quantify, mostly under pKd 3.1 to 4
[1] = molecular target: T1, APBA2_1, Q99767
T1 sequence (Q99767 563-664, limits assumed, looked up): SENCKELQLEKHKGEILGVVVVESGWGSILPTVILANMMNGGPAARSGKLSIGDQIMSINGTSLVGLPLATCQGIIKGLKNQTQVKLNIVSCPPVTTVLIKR

[2] = molecular target: T2, ARHGEF11, O15085
T2 sequence (O15085 42-136, limits assumed, looked up): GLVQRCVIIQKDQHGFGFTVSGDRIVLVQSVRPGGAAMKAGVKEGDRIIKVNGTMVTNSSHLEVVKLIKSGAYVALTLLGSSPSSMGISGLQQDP

[3] = molecular target: DLG1_1, Q12959
[4] = molecular target: T3, DLG3_1, Q92796
T3 sequence (Q92796 125-227, limits assumed, looked up): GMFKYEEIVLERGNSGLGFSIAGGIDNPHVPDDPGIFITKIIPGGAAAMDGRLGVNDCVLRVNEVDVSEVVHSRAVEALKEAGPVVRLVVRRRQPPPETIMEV

[5] = molecular target: DLG4_1, P78352
[6] = molecular target: T4, DVL3, Q92997
T4 sequence (Q92997 244-331, limits assumed, looked up): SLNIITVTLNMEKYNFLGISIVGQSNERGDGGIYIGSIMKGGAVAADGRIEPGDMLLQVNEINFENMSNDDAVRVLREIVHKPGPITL

[7] = molecular target: FRMPD2_3, Q68DX3
[8] = molecular target: FRMPD4, Q14CM0
[9] = molecular target: T5, GRIP1_3, Q9Y3R0
T5 sequence (Q9Y3R0 247-346, limits assumed, looked up): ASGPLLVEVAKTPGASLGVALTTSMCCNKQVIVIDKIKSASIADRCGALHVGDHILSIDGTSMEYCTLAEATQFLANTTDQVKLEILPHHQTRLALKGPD

[10] = molecular target: T6, GRIP1_5, Q9Y3R0
T6 sequence (Q9Y3R0 568-668, limits assumed, looked up): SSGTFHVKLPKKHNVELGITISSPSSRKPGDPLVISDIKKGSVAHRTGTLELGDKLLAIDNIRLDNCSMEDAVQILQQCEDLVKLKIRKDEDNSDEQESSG

[11] = molecular target: GRIP2_5, Q9C0E4
[12] = molecular target: T7, HTRA4, P83105
T7 sequence (P83105 378-476, limits assumed, looked up): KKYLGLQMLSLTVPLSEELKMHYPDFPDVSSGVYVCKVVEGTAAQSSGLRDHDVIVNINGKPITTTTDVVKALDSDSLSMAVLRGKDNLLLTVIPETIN

[13] = molecular target: Inadl_2, Q8NI35
[14] = molecular target: Inadl_4, Q8NI35
[15] = molecular target: Inadl_5, Q8NI35
[16] = molecular target: Inadl_6, Q8NI35
[17] = molecular target: LDB3, O75112
[18] = molecular target: T8, LNX2_2, Q8N448
T8 sequence (Q8N448 334-432, limits assumed, looked up): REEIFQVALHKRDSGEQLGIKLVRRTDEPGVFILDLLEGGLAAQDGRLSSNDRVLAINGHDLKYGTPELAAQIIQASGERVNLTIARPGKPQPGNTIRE

[19] = molecular target: MAGI1_1, Q96QZ7
[20] = molecular target: MAGI1_2, Q96QZ7
[21] = molecular target: MAGI2_4, Q86UL8
[22] = molecular target: MAGI2_6, Q86UL8
[23] = molecular target: T9, NHERF3_1, Q5T2W1
T9 sequence (Q5T2W1 4-100, limits assumed, looked up): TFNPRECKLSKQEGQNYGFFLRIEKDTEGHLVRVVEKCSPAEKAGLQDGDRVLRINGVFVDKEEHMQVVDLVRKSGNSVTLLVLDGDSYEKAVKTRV

[24] = molecular target: PDZRN4_1, Q6ZMN7
[25] = molecular target: T10, RHPN1, Q8TCX5
T10 sequence (Q8TCX5 508-602, limits assumed, looked up): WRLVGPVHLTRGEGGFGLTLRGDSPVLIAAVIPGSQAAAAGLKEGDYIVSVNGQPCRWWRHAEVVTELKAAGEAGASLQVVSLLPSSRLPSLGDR

[26] = molecular target: T11, SNTG1, Q9NSN8
T11 sequence (Q9NSN8 52-150, limits assumed, looked up): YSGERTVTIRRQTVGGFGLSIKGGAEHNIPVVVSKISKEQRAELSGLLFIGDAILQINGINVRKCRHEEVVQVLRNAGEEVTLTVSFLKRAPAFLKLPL

[27] = molecular target: TJP2_1, Q9UDY2
[28] = plain residues with an end cap or a label only (N-terminal biotin on a linker: none)
[29] = plain residues with an end cap or a label only (N-terminal biotin on a linker: ahx)
[30] = plain residues with an end cap or a label only (N-terminal biotin on a linker: gsgsgs; C-terminal amide)

Sequence of FRMPD4, Q14CM0 (Q14CM0 67-160): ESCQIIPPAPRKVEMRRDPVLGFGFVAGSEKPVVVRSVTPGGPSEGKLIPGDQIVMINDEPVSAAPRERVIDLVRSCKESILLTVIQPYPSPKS
Sequence of MAGI2_6, Q86UL8 (Q86UL8 1141-1229): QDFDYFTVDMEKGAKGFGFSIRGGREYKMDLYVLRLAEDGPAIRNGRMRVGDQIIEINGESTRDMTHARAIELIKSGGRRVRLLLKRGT
Sequence of Inadl_5, Q8NI35 (Q8NI35 673-780): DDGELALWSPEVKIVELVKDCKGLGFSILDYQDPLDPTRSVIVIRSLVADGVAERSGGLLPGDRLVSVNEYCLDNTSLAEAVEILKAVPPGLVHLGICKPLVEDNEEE
Sequence of GRIP2_5, Q9C0E4 (Q9C0E4 544-642): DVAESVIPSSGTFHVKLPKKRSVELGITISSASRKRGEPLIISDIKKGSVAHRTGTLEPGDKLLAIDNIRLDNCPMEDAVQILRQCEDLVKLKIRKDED
Sequence of TJP2_1, Q9UDY2 (Q9UDY2 24-128): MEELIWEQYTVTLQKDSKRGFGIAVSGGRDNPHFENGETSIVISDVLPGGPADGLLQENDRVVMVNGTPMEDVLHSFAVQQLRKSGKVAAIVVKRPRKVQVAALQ
Sequence of FRMPD2_3, Q68DX3 (Q68DX3 1073-1166): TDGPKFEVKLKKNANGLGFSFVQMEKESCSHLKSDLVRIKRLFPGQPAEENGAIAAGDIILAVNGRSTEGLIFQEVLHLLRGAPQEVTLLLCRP
Sequence of DLG4_1, P78352 (P78352 62-152): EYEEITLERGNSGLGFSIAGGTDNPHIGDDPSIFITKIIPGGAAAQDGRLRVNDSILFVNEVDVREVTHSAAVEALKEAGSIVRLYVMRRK
Sequence of LDB3, O75112 (O75112 1-94): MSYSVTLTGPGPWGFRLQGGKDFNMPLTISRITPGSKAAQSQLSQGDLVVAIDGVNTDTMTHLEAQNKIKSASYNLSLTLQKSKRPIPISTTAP
Sequence of MAGI2_4, Q86UL8 (Q86UL8 772-865): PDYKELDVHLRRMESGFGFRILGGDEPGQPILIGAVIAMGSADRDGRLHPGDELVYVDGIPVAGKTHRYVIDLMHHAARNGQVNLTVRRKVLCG
Sequence of Inadl_4, Q8NI35 (Q8NI35 547-651): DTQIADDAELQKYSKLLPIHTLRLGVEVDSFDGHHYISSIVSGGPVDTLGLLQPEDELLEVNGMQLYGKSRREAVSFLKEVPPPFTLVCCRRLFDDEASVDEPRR
Sequence of MAGI1_2, Q96QZ7 (Q96QZ7 456-580): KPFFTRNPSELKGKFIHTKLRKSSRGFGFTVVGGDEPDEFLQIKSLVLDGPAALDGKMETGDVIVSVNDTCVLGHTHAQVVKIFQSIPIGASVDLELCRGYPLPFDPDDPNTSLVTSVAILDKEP
Sequence of PDZRN4_1, Q6ZMN7 (Q6ZMN7 213-318): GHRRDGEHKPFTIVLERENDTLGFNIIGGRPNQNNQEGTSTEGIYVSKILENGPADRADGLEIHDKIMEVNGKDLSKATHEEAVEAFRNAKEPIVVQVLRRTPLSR
Sequence of MAGI1_1, Q96QZ7 (Q96QZ7 1-106): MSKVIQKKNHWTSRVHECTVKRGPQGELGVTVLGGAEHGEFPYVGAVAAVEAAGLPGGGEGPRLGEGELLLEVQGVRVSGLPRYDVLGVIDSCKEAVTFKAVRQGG
Sequence of Inadl_6, Q8NI35 (Q8NI35 1058-1167): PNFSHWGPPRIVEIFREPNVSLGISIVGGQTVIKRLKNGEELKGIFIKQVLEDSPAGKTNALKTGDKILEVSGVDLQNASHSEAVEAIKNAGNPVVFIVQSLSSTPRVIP
Sequence of Inadl_2, Q8NI35 (Q8NI35 238-335): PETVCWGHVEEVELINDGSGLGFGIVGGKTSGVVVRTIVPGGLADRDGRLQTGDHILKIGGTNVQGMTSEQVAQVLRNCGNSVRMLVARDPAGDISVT

B1: SARS-CoV2-E, P0DTC4 (peptide)
chain: NLNSSRVPDLLV
In the case of B1, the pKd [1, 28] is reported as “below the threshold”, the pKd [2, 28] is reported as “below the threshold” and the pKd [3, 28] is reported as “below the threshold”. For the same binder, the pKd [4, 28] was “below the threshold”, the pKd [5, 28] was “below the threshold” and the pKd [6, 28] was “below the threshold”. The pKd [7, 28] was “below the threshold”, the pKd [8, 28] was 3.48 and the pKd [9, 28] was “below the threshold”. The pKd [10, 28] was “below the threshold”, the pKd [11, 28] was “below the threshold” and the pKd [12, 28] was “below the threshold”. For the same binder, the pKd [13, 28] was 3.47, the pKd [14, 28] was “below the threshold” and the pKd [15, 28] was “below the threshold”. For the same binder, the pKd [16, 28] was “below the threshold”, the pKd [17, 28] was “below the threshold” and the pKd [18, 28] was 4.46. For the same binder, the pKd [19, 28] was “below the threshold”, the pKd [20, 28] was “below the threshold” and the pKd [21, 28] was 3.65. For the same binder, the pKd [22, 28] was “below the threshold”, the pKd [23, 28] was “below the threshold” and the pKd [24, 28] was “below the threshold”. For the same binder, the pKd [25, 28] was “below the threshold”, the pKd [26, 28] was “below the threshold” and the pKd [27, 28] was “below the threshold”.

B2: LNX2, Q8N448 (peptide)
chain: TVICWPGSLV
With B2 the pKd [1, 29] was “below the threshold”, the pKd [2, 29] was 3.58 and the pKd [3, 29] was 4.21. For the same binder, the pKd [4, 29] was 4.01, the pKd [5, 29] was 4.44 and the pKd [6, 29] was 3.99. The pKd [7, 29] was “below the threshold”, the pKd [8, 29] was “below the threshold” and the pKd [9, 29] was “below the threshold”. The pKd [10, 29] was “below the threshold”, the pKd [11, 29] was “below the threshold” and the pKd [12, 29] was 4.45. The pKd [13, 29] was “below the threshold”, the pKd [14, 29] was “below the threshold” and the pKd [15, 29] was 3.51. The pKd [16, 29] was 3.55, the pKd [17, 29] was “below the threshold” and the pKd [18, 29] was 4.32. The pKd [19, 29] was “below the threshold”, the pKd [20, 29] was 3.85 and the pKd [21, 29] was 5.22. The pKd [22, 29] was 3.56, the pKd [23, 29] was 4.73 and the pKd [24, 29] was 4.23. For the same binder, the pKd [25, 29] was 3.85, the pKd [26, 29] was 3.7 and the pKd [27, 29] was 3.9.

B3: PDLIM4, P50479;P50479-2 (peptide)
chain: PSASCAVTAA
B3 was tested, and the pKd [1, 29] was “below the threshold”, the pKd [2, 29] was “below the threshold” and the pKd [3, 29] was “below the threshold”. For the same binder, the pKd [4, 29] was “below the threshold”, the pKd [5, 29] was “below the threshold” and the pKd [6, 29] was “below the threshold”. For the same binder, the pKd [7, 29] was “below the threshold”, the pKd [8, 29] was “below the threshold” and the pKd [9, 29] was “below the threshold”. The pKd [10, 29] was “below the threshold”, the pKd [11, 29] was “below the threshold” and the pKd [12, 29] was “below the threshold”. The pKd [13, 29] was “below the threshold”, the pKd [14, 29] was “below the threshold” and the pKd [15, 29] was “below the threshold”. For the same binder, the pKd [16, 29] was “below the threshold”, the pKd [17, 29] was “below the threshold” and the pKd [18, 29] was “below the threshold”. The pKd [19, 29] was “below the threshold”, the pKd [20, 29] was “below the threshold” and the pKd [21, 29] was “below the threshold”. For the same binder, the pKd [22, 29] was “below the threshold”, the pKd [23, 29] was “below the threshold” and the pKd [24, 29] was “below the threshold”. For the same binder, the pKd [25, 29] was “below the threshold”, the pKd [26, 29] was “below the threshold” and the pKd [27, 29] was “below the threshold”.

B4: DFNB31_int, Q9P202 (peptide)
chain: VSVDDVRSTSQGLSSY
For B4, the pKd [1, 30] was “below the threshold”, the pKd [2, 30] was “below the threshold” and the pKd [3, 30] was “below the threshold”. The pKd [4, 30] was “below the threshold”, the pKd [5, 30] was “below the threshold” and the pKd [6, 30] was “below the threshold”. For the same binder, the pKd [7, 30] was “below the threshold”, the pKd [8, 30] was “below the threshold” and the pKd [9, 30] was “below the threshold”. The pKd [10, 30] was “below the threshold”, the pKd [11, 30] was “below the threshold” and the pKd [12, 30] was “below the threshold”. For the same binder, the pKd [13, 30] was “below the threshold”, the pKd [14, 30] was “below the threshold” and the pKd [15, 30] was “below the threshold”. For the same binder, the pKd [16, 30] was “below the threshold”, the pKd [17, 30] was “below the threshold” and the pKd [18, 30] was “below the threshold”. The pKd [19, 30] was “below the threshold”, the pKd [20, 30] was “below the threshold” and the pKd [21, 30] was “below the threshold”. The pKd [22, 30] was “below the threshold”, the pKd [23, 30] was “below the threshold” and the pKd [24, 30] was “below the threshold”. For the same binder, the pKd [25, 30] was “below the threshold”, the pKd [26, 30] was “below the threshold” and the pKd [27, 30] was “below the threshold”.
